From the nanobody polyreactivity screen of Harvey et al. (2022)

Test: yeast display, Sf9 membrane polyspecificity reagent, FACS + sequencing; frameworks hold sequencing errors
Summary of the method: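 A synthetic nanobody library was expressed on Saccharomyces cerevisiae BJ5465 by galactose induction for 36–48 hours. The library was stained for 1 hour at 4 °C with 10% biotinylated, detergent-solubilized Sf9 membrane reagent and enriched with streptavidin microbeads before FACS. Low and high (top ~1%) gates were set on anti-HA fluorescence for expression and streptavidin fluorescence for reagent binding, and each polyreactivity label reflects the gate of origin.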

Row | Sequence | polyreactivity (PSR sort gate)
1 | QVQLVESGGGLVQAGGSLRLSCAASGSTLVTYAMGWYRQAPGKERELVAAISWRGGSTYYADSVKGRFTISRDNAKNTVYLQMNSLKPEDTAVYYCIKLRAYKESETYYYWGQGTQVTVSS | low polyreactivity
2 | QVQLVESGGGLVQAGGSLRLSCAASGRTFARYTMGWYRQAPGKERELVASITRGGSTYYADSVKGRFTISRDNAKNTVYVQMNSLKPEDTAVYYCAARFPQHNYWAMDYWGQGTQVTVSS | high polyreactivity
3 | QVQRVESGGGLVQAGGSLRLSCAASGFTFRWYAMGWYRQAPGKEREMVAAISRSGASTYYADSVKGRFTISRDNAKNTVYLQMNSLKPEDTAVYYCAVLWHGRRPLYKLRTGPEYDYWGQGTQVTVSS | high polyreactivity
4 | QVQLVESGGGLVQAGGSLRLSCAASGSTFRYNAMGWYRQAPGKERELVATITGSGGSTYYADSVKGRFTISRDNAKNTVYLQMNSLKPEDTAVYYCAAAYRGRYSWYYFPRYAYWGQGTQVTVSS | high polyreactivity
5 | QVQLVESGGGLVQAGGSLRLSCAASGRISSVYAMGWYRQAPGKERELVAAINWRVGSTYYADSVKGRFTISRDNAKNTVYLQMNSLKPEDTAVYYCAVDPVYGIIGSRYDYWGQGTQVTVSS | low polyreactivity
6 | QVQLVETGGGLVQAGGSLRLICAASGSTFWRNAMGWYRQAPGKERELVATISKSGGRTYYADSVKGRFTISRDNAKNTVYLQMNRLKPEDTAVYYCAADQYWYKPYVGELYDYDYWGQGTQVTVSS | low polyreactivity
7 | QVQLEESGGGLVQAGGSLRLSCAASGSTFLLYAMGRYRQAPGKEMEMVATISWGGDGTYYADSVKGRFTISRDNAKNTVYLQMNSLIPEDTAVYYCAAESYLVQFYFLYYYWGQGTQVTVSS | low polyreactivity
8 | QVQLVESGGGLVQAGGSLRLSCAASGSTFSQNALGWYRQAPGKDRELVAAITSGGITYYADSVKGRFTMSRDNAKNTVYLQMNSLKPEDTAVYYCAADFWPSGRGVAFDYWGQGTQVTVSS | low polyreactivity
9 | QVQIVESGGGLVQAGVSLRLSCAPSGFIFSVYAMGWYRQAPGKEMELVAGITRNGGITYYADSVKWRFTISRDNAKNTVYLQMNSLKPEDSAVYYCAAQAPKRRPFYGYYWGQGTQVTVSS | high polyreactivity
10 | QVQLGESGGGLVQAGGSLRLSCAASGRTLSYYAMGWYRPAPGNDRELVAAISGSAGSTYYADSVKGRFTISRDNAKNTVYLQMNSLKPEDTAVYYCAAYIYSYDEGYYWGQGTQVTVSS | high polyreactivity
11 | QVQLVESGGGLVQAGGSLRLSCAASGSTDRYYVMGWYRQAPGKERDLVAGISYRGGTTYYADSVKGRFTISRDNAKNTVYLQMNRLKPEDTAVYYCNAETAAAQASYDRLYVLLDYWGQGTQVTVSS | low polyreactivity
12 | QVQLVESGGGLVQAGGSLRLSCSASGYIFDYNAMGWYIQAPGKERELVAAITFRDGSTYADSVKGRFTISRDNAKNTVYLQMNSLKPEDTAVYYCNRRSQVHSHSKHDYWGQGTQVTVSS | low polyreactivity
13 | QVQLVETRGGLVQAGGTLRLSFAASGSTFSYYTMGWYRHAPGTERELVGSIDSSGGSTYYADSVKGRFTISRDNAQNTVYLQMNSLKPEDTAVYYCATGDEWGYDYWGQGTQVTVSS | low polyreactivity
14 | QVQLVESGGGLFQAGGSLRISCAASGITFYGNAMGWYRQAPGKERELDATISSGGGTNYADSVKGRFTISRDNAKNTVYLQMNSLKPEDTAVYYCATDLSTVDYNYWGQGTQVTVSS | low polyreactivity
15 | QVQLVESGGGLVQAGGSLRLSCAASGRTFPVNAMGWYRQAPGKEREFVAVISSTGTTYYADSVKGRFTISLDNAKITVYLQMNSLKPEDTAVYYCARRSNRRAYVNRVGVLRTVDYWGQGTQVTVSS | low polyreactivity
16 | QVQLVESGGGLDQAGGSLRLSCAASGSTFYGYAMGWYRPAPGKERELVAGISSGDSTNYADSVKGRFTISRDNAKNTVYLQMNSLKPEDTAVYYCARDYSRHKGDYWGQGTQVTVSS | low polyreactivity

Row | Sequence | polyreactivity (PSR sort gate)
17 | QVQLVESGGGLVQAGGSLRLSCAASGRIFGANAMGWYRQAPGKERELVAVITGGGGTYYADSVKGRFTISRDNSKNTVYLQINSLKPEDTAVYYCDWPRYYYTYPSHPMDYWGQGTQVTVSS | low polyreactivity
18 | QVQLVESGGGLVQAGGSLRLSCAASGYVMGWYRQAPGKEREMVAAITRGTSTYYADSVKGRFTISRDNAKNTVYLQLNSLKPEDTAVYFCADRHNTGSSRHYGYWGQGTQVTVSS | low polyreactivity
19 | QVQLVESGGGLVQAGGSLRLSCAASGSTYAYYAMGWYRQATGKERELVAAISLSSGCTYYADSVKGRFTISRDKAKNTVYLQMNSLKPEDTAVYYCAADFASDSSRYEYWGQGTQVTVSS | low polyreactivity
20 | QVQLQESGGGLVQAGGSLRLSCAASGSIFADVQMGWYRQAPGKERELVASINFRGTTSYYADSVKGRFTISRDNAKNTVYLQMSSLKPEETEVYYCAVGRSEGGDFAYWGQGTHVTVSS | low polyreactivity
21 | QVQLVESGGGLVQAGGSLRLSCAASGRTFVPYVMGWYRQAPGKESELVASITSGGSTYYADSVKGRFTISRDNAKNTVYLQMNSLKPEDTAVYYCATRQSAERWGYYYWGQGTQVTVSS | low polyreactivity
22 | QVQLVESGGGLVQAGGSLRLSCAASGRTFIQYAMGWYRQAPGKERELVAAISLSGGSTYYADSVKGRFTISRDNAKNTVYLQMNSLKPEDTAVYYCNAGYYWGQGTQVTVSS | high polyreactivity
23 | QVQLVESGGGLVQAGGSLRLSCAASGSIFYYNTMGWYRQAPGKEREFVATITFSGSSTYYADSVKGRFTFSRDNAKNTVYLQMNSLKPEDTAVYYCAVTLEDYTYGYWGQGTQVTVSS | low polyreactivity
24 | QVQLVESGGGLVQAGGSLRLSCAASGFTFDWNGMGWYRQAPGKEREFVAGITWSGTSTYADSVKGRFTISRDNAKNTVYLQMNSLKPEDTAVYYCAAVSSKGNRHEYDYWGQGTQVTVSS | low polyreactivity
25 | QVQLVESGGGLVQAGGSLRLSCAASGGIFFYYVMGWYRQAPGKERELVAAITSGGSTYYADSVKGRFTISRDNAKNTVYLQMNSLKPEDTAVYSCNGRDVVDYSVWSRYAYDYWGQGTQVTVSS | low polyreactivity
26 | QVQLVESGGGLVQAGGSLRLSCAATGGIFGYYSMGWYRQSPGKESELVAAINYSGGSTYYADSVKGRFTISRDNAKNTVYLQMNSLKPEDTAVYYCNAVVRDYTFRYYYWGQGTQVTVSS | low polyreactivity
27 | QVQLVESGGGLVQAGGSLRLSCAASGFTFSYYAMGWYRPAPGKERELVAAITSGGSTYYADYVKGRFTISRDNAKNTVYLQMNSLKPEDTAVYYCNADGWYYPTDDYWGQGTQVTVSS | low polyreactivity
28 | QLQLVESGGGLVQAGGSLRLSCAASGRIFVANTMGWYRQAPGKERELVAAISRGSTYYADSVKGRFTISRDNAKNTVYLQMKSLKPEDTAVYYCAVKLAYGYYYWGLGTQVTVSS | high polyreactivity
29 | QVQLVESGGGLVQAGGSLRLSCAASGGAFRYYTMGWYRPAPGKDRELVASISGGGRTYYADSVKGRFTISRDNAKNSVYLQMNSLKPEDTAVYYCNARNRVYYTMSGFGYLGQGTQVTVSS | high polyreactivity
30 | QVQLVESGGGLVQAGGSLRLSCAASGFTFWLYAMGWYRQAPGKERELVAAIDWDGGTYYADSVKGRFTISRDNAKNTVYLQMNSLKPEDTAVYYCAARYRYYYTRYDYWGQGTQVTVSS | high polyreactivity
31 | QVQLVESGGGIVQAGGSLRLSCAASGRIYRYNAMGWYRQAPGKERELVASINQRGGSTYYADSVKGRFTISRDNAKNTVYLQMNSLKPEDTAVYYCAQSFNSGYYYWGQGTQVTVSS | high polyreactivity
32 | QVQLVEAGGGLVQAGGRLRLSCAASGRIFGRTAMGWYRQAPGKERELGAAIRRSSASTYYADSVKGRFTISRDNAKNTFYLQMNSLKPEDTAVYYCATQSYSYYGYRYRYAAFDYWGQGTQVTVSS | high polyreactivity
